These results are taken from article PMC3656048, “SAP97 Controls the Trafficking and Resensitization of the Beta-1-Adrenergic Receptor through Its PDZ2 and I3 Domains” (PLoS ONE, 2013).

This assay has as its target T1, GST-PDZ2 of SAP97 (rat).
T1 chain: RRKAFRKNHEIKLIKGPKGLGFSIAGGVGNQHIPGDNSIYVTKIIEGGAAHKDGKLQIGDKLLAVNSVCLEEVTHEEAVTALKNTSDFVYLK
Nature of the assay: pull-down; solubilized membranes of HEK-293 cells expressing 1.2 pmoles of FLAG ß1-AR per mg protein mixed with increasing concentrations of GST-PDZ2; GST pull-downs probed with anti-ß1-AR antibody, optical densities, estimated EC50, n = 3. The following applies: one partner purified.

B1: full length WT FLAG ß1-AR (receptor)
chain: not shown
notes: human ß1-adrenergic receptor, wild type; also called FLAG-tagged WT ß1-AR; WT ß1-AR; not shown: FLAG, N-terminal, kept
Take B1: the EC50 (usually the concentration that produces a half-maximal response) is around 1000 nM.
